Patent publication US10933132B2, “Combination of epigenetic factors and bispecific compounds targeting CD33 and CD3 in the treatment of myeloid leukemia” (AMGEN RESEARCH (MUNICH) GMBH, priority 2013, dated 2021)

Tested on: KG1α AML cells
Assay: G-CSF up-regulation of CD33 on AML cell lines, flow cytometry
Assay type: cell-based
Details: 10 days; for CD33 MFI Ratio: KG1α, untreated 16.5
Procedure: AML cell lines OCI-AML3 and KG1α were seeded in 24-well plates at 5×10^5 cells/ml on day 0. Cells were either left untreated (UT) or treated with 200 ng/ml (C1) or 2000 ng/ml (C2) G-CSF (Peprotech) for 10 days. G-CSF was freshly added to the cultures biweekly. On day 10, cells were harvested and analyzed for changes in CD33 surface expression by flow cytometry.

B1: G-CSF: glycoprotein cytokine that stimulates the bone marrow to produce granulocytes and stem cells (Peprotech) (protein, UniProt P09919 31-207, looked up)
Granulocyte …: TPLGPASSLPQSFLLKCLEQVRKIQGDGAALQEKLVSECATYKLCHPEELVLLGHSLGIPWAPLSSCPSQALQLAGCLSQLHSGLFLYQGLLQALEGISPELGPTLDTLQLDVADFATTIWQQMEELGMAPALQPTQGAMPAFASAFQRRAGGVLVASHLQSFLEVSYRVLRHLAQP
B1 was tested, and the “upregulation of CD33 (in words)” value (KG1α AML cells, 200 and 2000 ng/ml) was “low upregulation”, the “CD33 MFI Ratio” value (C1 = 200 ng/ml G-CSF) was 17.9 and the “CD33 MFI Ratio” value (C2 = 2000 ng/ml G-CSF) was 19.2.
